T1: cyno CD137 (cynomolgus monkey, UniProt Q07011 24-186 (human entry), limits assumed)
T1 construct: also called cynomolgus monkey CD137
T1 chain: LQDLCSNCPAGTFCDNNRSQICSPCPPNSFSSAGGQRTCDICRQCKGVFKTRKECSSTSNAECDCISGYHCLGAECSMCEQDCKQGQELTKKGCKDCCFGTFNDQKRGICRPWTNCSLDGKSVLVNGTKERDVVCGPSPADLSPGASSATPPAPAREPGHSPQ

T2: Human CD3eg linker (human)
T2 construct: Single chain: CD3 epsilon and gamma subunits joined by a 29-mer linker, Flag-tag at the C-terminus; also called recombinant human CD3
T2 chain: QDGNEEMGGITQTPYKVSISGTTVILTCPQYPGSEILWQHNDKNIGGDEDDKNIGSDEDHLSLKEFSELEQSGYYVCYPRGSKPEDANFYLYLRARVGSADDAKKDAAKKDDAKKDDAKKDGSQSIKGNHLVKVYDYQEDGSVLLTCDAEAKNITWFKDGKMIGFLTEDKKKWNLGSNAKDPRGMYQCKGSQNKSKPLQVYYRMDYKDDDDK

B1: dBBDu183/L063 (antibody, V domains shown)
VH: QVQLVESGGGLVQPGRSLRLSCAASGFTFSNAWMHWVRQAPGKGLEWVAQIKDKGNAYAAYYAPSVKGRFTISRDDSKNSIYLQMNSLKTEDTAVYYCHYVHYASASTVLPAFGVDAWGQGTTVTVSS
VL: DIVMTQSPLSLPVTPGEPASISCRSSQELVHTNRHTYLHWYQQKPGQAPRLLIYKVSNRFPGVPDRFSGSGSGTDFTLKISRVEAEDVGVYYCAQGTQVPFTFGQGTKLEIK
notes: IgG format; constant regions not specified
B2: dBBDu189/L116 (antibody, V domains shown)
VH: B1 VH with V48I, K54R, G55S, A57Q, A60T, S105Q, T108S, V109L, A112S
VL: B1 VL with R24S, T32A, H35Q, T36I, S57A
notes: as for B1
B3: dBBDu189/L112 (antibody, V domains shown)
VH: B1 VH with V48I, K54R, G55S, A57Q, A60T, S105Q, T108S, V109L, A112S
VL: B1 VL with R24T, S26D, T32M, S57Y, Q98S
notes: as for B1
B4: dBBDu183/L067 (antibody, V domains shown)
VH: B1 VH
VL: B1 VL with R24Q, Q27E, E28S, T32V, S57Y, Q98S
notes: as for B1
B5: dBBDu183/L072 (antibody, V domains shown)
VH: B1 VH
VL: B1 VL with R24Q, S25A, T32M, H35N, Q98S
notes: IgG format; also called H183L072
B6: dBBDu167/L091 (antibody, V domains shown)
VH: B1 VH with A57L, S107G, T108G, V109G, A112G
VL: B1 VL with R24S, S25A, Q27E, E28S, V30L, T32N, K55R, P61N, A94G
notes: as for B1
B7: dBBDu186/L096 (antibody, V domains shown)
VH: B1 VH with K54R, G55S, A57Q, A60T, S105Q
VL: B1 VL with S25T, T32I, H35Y, T36I, Y37F, S57Y, P61Q, Q98S, F101Y
notes: as for B1
B8: dBBDu197 (antibody, V domains shown)
VH: B1 VH with K54R, G55S
VL: B1 VL with E28S, T32S, H35N, P61S, A94G, F101Y
notes: Human IgG1; light chain GLS3000 (kappa)
B9: dBBDu193 (antibody, V domains shown)
VH: B1 VH with K54R, G55S, A57Q, A60T, A104S, S105A, V109L, A112S
VL: B1 VL with E28S, T32S, H35N, P61S, A94G, F101Y
notes: as for B8
B10: dBBDu167 (antibody, V domains shown)
VH: B1 VH with A57L, S107G, T108G, V109G, A112G
VL: B1 VL with E28S, T32S, H35N, P61S, A94G, F101Y
notes: as for B8
B11: dBBDu189 (antibody, V domains shown)
VH: B1 VH with V48I, K54R, G55S, A57Q, A60T, S105Q, T108S, V109L, A112S
VL: B1 VL with E28S, T32S, H35N, P61S, A94G, F101Y
notes: as for B8
B12: dBBDu173 (antibody, V domains shown)
VH: B1 VH with A57L, S107G, T108G, V109G, P111S, F113Y
VL: B1 VL with E28S, T32S, H35N, P61S, A94G, F101Y
notes: as for B8
B13: dBBDu204 (antibody, V domains shown)
VH: B1 VH with K54R, G55S, A57N, A60T, P64E
VL: B1 VL with E28S, T32S, H35N, P61S, A94G, F101Y
notes: as for B8
B14: dBBDu202 (antibody, V domains shown)
VH: B1 VH with A104S, S105A
VL: B1 VL with E28S, T32S, H35N, P61S, A94G, F101Y
notes: as for B8
B15: dBBDu186 (antibody, V domains shown)
VH: B1 VH with K54R, G55S, A57Q, A60T, S105Q
VL: B1 VL with E28S, T32S, H35N, P61S, A94G, F101Y
notes: as for B8
B16: dBBDu205 (antibody, V domains shown)
VH: B1 VH with K54R, G55S, N56Q, A57L
VL: B1 VL with E28S, T32S, H35N, P61S, A94G, F101Y
notes: as for B8
B17: dBBDu196 (antibody, V domains shown)
VH: B1 VH with K54R, A59N, P64E
VL: B1 VL with E28S, T32S, H35N, P61S, A94G, F101Y
notes: as for B8
B18: dBBDu179 (antibody, V domains shown)
VH: B1 VH with K54R, G55S, A57Q, A60T
VL: B1 VL with E28S, T32S, H35N, P61S, A94G, F101Y
notes: as for B8
B19: dBBDu183 (antibody, V domains shown)
VH: B1 VH
VL: B1 VL with E28S, T32S, H35N, P61S, A94G, F101Y
notes: Human IgG1; light chain GLS3000 (kappa), before light chain maturation
B20: dBBDu199 (antibody, V domains shown)
VH: B1 VH with G55Q, N56S, A57G, A59N, A60T
VL: B1 VL with E28S, T32S, H35N, P61S, A94G, F101Y
notes: as for B8
B21: H2591L0581 (antibody, V domains shown)
VH: B1 VH with T28K, A32V, M34F, K54Y, G55Y, A60G, A63H, S105A, V109L, F113E
VL: B1 VL with R24Q, S25P, L29V, T32M, H35N, Q98S, V99H
notes: Dual-Ig, IgG; also called H2591L581; dBBDu183H2591/dBBDu072L0581
B22: H2594L0581 (antibody, V domains shown)
VH: QVQLVESGGGLVQPGRSLRLSCAASGFKFSNVWFHWVRQAPGKGLEWVAQIKDYYNAYAGYYHPSVKGRFTISRDDSKNSIYLQMNSLKTEDTAVYYCHYVHYAAASQLLPAEGVDAWGQGTTVTVSS
VL: B1 VL with R24Q, S25P, L29V, T32M, H35N, Q98S, V99H
notes: Dual-Ig, IgG; also called H2594L581; dBBDu183H2594/dBBDu072L0581

Data on 22 molecules can be found in patent US20210388087A1 (Chugai, published 2021).

Numbering of substitutions follows the chain as printed.

For the first test, the target named is T1, cyno CD137. The test is described as follows: SPR Biacore T200, IgG captured on protein A, 25 C.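 Also: antigens diluted in ACES running buffer at pH 7.4 were flowed over antibodies held on a CM3 chip bearing amine-coupled protein A, with buffer alone serving as blank.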 A general note: Surface plasmon resonance follows binding to a sensor surface in real time, without labels.
Consider B1, for which the equilibrium dissociation constant (Kd) came to 3120 nM, the off-rate (koff) is 0.00457 s⁻¹ and the kon amounted to 1470 M⁻¹ s⁻¹.

In the case of B2, the Kd was determined as 11100 nM, the koff is 0.00823 s⁻¹ and the association rate constant (kon) amounted to 744 M⁻¹ s⁻¹.

The molecule B3 showed a dissociation constant (Kd) of 5760 nM, a koff of 0.0286 s⁻¹ and an on-rate (kon) of 4980 M⁻¹ s⁻¹.

B4 gave a dissociation constant (Kd) of 6200 nM, a koff of 0.00813 s⁻¹ and a kon of 1310 M⁻¹ s⁻¹.

In the case of B5, binding was put at a Kd of 4870 nM, the koff turned out to be 0.00593 s⁻¹ and the on-rate (kon) was 1220 M⁻¹ s⁻¹.

B6: binding was characterised by a dissociation constant (Kd) of 4170 nM, the off-rate (koff) was 0.0101 s⁻¹ and the on-rate constant (kon) worked out at 2430 M⁻¹ s⁻¹.

Turning to B7, binding was put at a Kd of 205000 nM and the koff was determined as 0.00223 s⁻¹.

The next test has as its target human CD3 ed (human, UniProt P07766 23-126; P04234 22-105, limits assumed). The test is described as follows: SPR Biacore T200, IgG captured on protein A, 25 C.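 Also: antigens diluted in ACES running buffer at pH 7.4 were flowed over antibodies held on a CM3 chip bearing amine-coupled protein A, with buffer alone serving as blank.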
In turn, B1 gave a Kd of 276 nM, a koff of 0.0157 s⁻¹ and an on-rate (kon) of 56900 M⁻¹ s⁻¹.

For the molecule B2, the dissociation constant Kd is 209 nM, the koff was determined as 0.00434 s⁻¹ and the kon was determined as 20800 M⁻¹ s⁻¹.

B3 displayed a dissociation constant (Kd) of 331 nM, a koff of 0.01 s⁻¹ and a kon of 30300 M⁻¹ s⁻¹.

B4 registered a Kd of 217 nM, a koff of 0.0193 s⁻¹ and an association rate constant (kon) of 88900 M⁻¹ s⁻¹.

Regarding B5, the equilibrium dissociation constant (Kd) turned out to be 217 nM, the off-rate (koff) was 0.00785 s⁻¹ and the on-rate (kon) amounted to 36100 M⁻¹ s⁻¹.

Consider B6, for which binding was put at a Kd of 413 nM, the off-rate constant (koff) amounted to 0.0216 s⁻¹ and the association rate constant (kon) turned out to be 52400 M⁻¹ s⁻¹.

For B7, the dissociation constant Kd is 9110 nM, the koff worked out at 0.102 s⁻¹ and the kon came to 11200 M⁻¹ s⁻¹.

Another test addresses T3, human CD137-Fc (human, biotin-labeled).
T3 construct: if 90 already holds the Fc, drop the second piece; also called biotin-labeled human CD137 fused to human IgG1 Fc fragment; biotin-human CD137-Fc; not shown: human IgG1 Fc fragment
The test is described as follows: bead ELISA on biotin-human CD137-Fc, 0 pmol free CD3e peptide.
B8: the ELISA signal was determined as 54400.

Regarding B9, the ELISA signal is 18200.

For the molecule B10, the ELISA signal was determined as 25700.

In turn, B11 yielded an ELISA signal of 27400.

The molecule B12 gave an ELISA signal of 6540.

Regarding B13, the ELISA signal was 43700.

As to B14, the ELISA signal turned out to be 12100.

B15 came in with an ELISA signal of 34800.

As for B16, the ELISA signal turned out to be 45200.

B17 yielded an ELISA signal of 33100.

In turn, B18 had an ELISA signal of 61000.

For the molecule B19, the ELISA signal amounted to 34000.

Regarding B20, the ELISA signal was 40900.

The target in the next test is T4, Human CD137 ECD (human).
T4 construct: also called human CD137 extracellular domain; recombinant human CD137
In words: SPR Biacore T200, 37 C, Ab captured on anti-human Fc, antigen as analyte.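 Also: recombinant human CD137 flowed over antibodies held by amine-coupled anti-human Fc on a CM4 chip, run in ACES pH 7.4 buffer with 150 mM NaCl and 0.05% Tween 20.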
Molecule B21 showed a Kd of 36.3 nM, a koff of 0.000742 s⁻¹ and an association rate constant (kon) of 20400 M⁻¹ s⁻¹.

In turn, B22 returned a Kd of 78.1 nM, a koff of 0.00163 s⁻¹ and a kon of 20900 M⁻¹ s⁻¹.

A further test concerns the target T2, Human CD3eg linker. The test is described as follows: SPR Biacore T200, 25 C, Ab captured on anti-human Fc, antigen as analyte.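 Also: Anti-Fc amine-coupled to a CM4 chip, recombinant human CD3 flowed over in 20 mM ACES buffer pH 7.4 with 150 mM NaCl and 0.05% Tween 20.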
In turn, B21 returned a dissociation constant Kd of 525 nM, a dissociation rate constant (koff) of 0.0535 s⁻¹ and an on-rate (kon) of 102000 M⁻¹ s⁻¹.

On to B22, for which the Kd was 593 nM, the off-rate constant (koff) was 0.0584 s⁻¹ and the kon was determined as 98300 M⁻¹ s⁻¹.

For the next test, the target named is T3, human CD137-Fc. The test is described as follows: bead ELISA on biotin-human CD137-Fc with 125 pmol/well free CD3e peptide as competitor. (ELISA stands for enzyme-linked immunosorbent assay.)
B8 gave an ELISA signal of 2110.

Molecule B9 yielded an ELISA signal of 2280.

B10 yielded an ELISA signal of 1940.

B11 registered an ELISA signal of 2190.

Molecule B12 gave an ELISA signal of 2040.

B13 returned an ELISA signal of 1880.

Molecule B14 yielded an ELISA signal of 1930.

As for B15, the ELISA signal is 2500.

Molecule B16 yielded an ELISA signal of 2190.

With B17, the ELISA signal came to 2220.

Take B18: the ELISA signal came out at 2620.

The molecule B19 showed an ELISA signal of 2370.

Turning to B20, the ELISA signal was 2370.

The next test concerns the target T3, human CD137-Fc. In words: bead ELISA on biotin-human CD137-Fc, 125 vs 0 pmol free CD3e peptide.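 Also: target captured on streptavidin-coated magnetic beads, signal read as fluorescence 2 min after adding APS-5 substrate.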
Regarding B8, the Signal decrease came out at 96.1%.

Molecule B9 came in with a Signal decrease of 87.5%.

On to B10, for which the Signal decrease turned out to be 92.5%.

Molecule B11 showed a Signal decrease of 92%.

In the case of B12, the Signal decrease is 68.8%.

B13 registered a Signal decrease of 95.7%.

The molecule B14 registered a Signal decrease of 84%.

As to B15, the Signal decrease came to 92.8%.

Molecule B16 displayed a Signal decrease of 95.2%.

B17: the Signal decrease amounted to 93.3%.

In turn, B18 gave a Signal decrease of 95.7%.

B19 yielded a Signal decrease of 93%.

B20 showed a Signal decrease of 94.2%.

Usually Kd stands for the concentration at which binding is half-saturated. Read a low Kd as higher affinity. As usually defined, the koff is the rate constant with which the complex falls apart. The low end stands for a long-lived complex, the high end for a short-lived complex. By kon is commonly meant a measure of how fast the partners come together. Low readings indicate slow association, high ones fast association.
